These are literature values, as cited in PMC12612446.

pKd: −log10 of the molar value.

Broadly, the pKd is the negative decadic logarithm of the Kd, by convention in mol/L.

For this series, the target named is HER2 (Homo sapiens) (UniProt P04626).

Regarding trastuzumab, the pKd was 9.24.
